Key:
Aβ(M1-40) (human) = assay: cell-based or functional assay
Aβ(M1-42) (human) = assay: cell-based or functional assay
Aβ(M1-42) (human), sequence (peptide, as listed by the source): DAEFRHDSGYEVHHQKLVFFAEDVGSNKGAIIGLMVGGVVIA

Aβ(M1-40) (human), sequence (peptide, as listed by the source): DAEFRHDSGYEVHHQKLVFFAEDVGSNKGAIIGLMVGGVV

molar equivalents needed for the same inhibition of Aβ40 aggregation (ThT assay) (molar equivalents) (Aβ(M1-40) (human)): 0.01
effect on Aβ42 aggregation (ThT assay) (molar equivalents) (Aβ(M1-42) (human)): 0.1
Substance: human anti-thrombin (from UniProt P01008 33-464)

— patent US20140030274A1
